The values below come from US20030073824A1, “DNA encoding methymycin and pikromycin” (priority 1999, published 2003).

The target of series [1] is A. eutrophus PHA synthase (Cupriavidus necator, UniProt P23608). Conditions: read-out: apparent Km (substrate concentration at half-optimal velocity); enzyme 0.95 mg/ml; 40 or 200 μl assay volumes; FIG. 10.
The nature of series [2]: Storage stability of PHA synthase purified from insect cells. The format is physicochemical. As for the experimental part: Fraction collection tubes were prepared by addition of […] of 100 mM EDTA to provide a metalloprotease inhibitor at 1 mM immediately after HA chromatography. PHA synthase was eluted in a broad peak between 110-180 mM KPi. Fractions (3 ml) containing significant PHA synthase activity were pooled and stored at 0° C. until the entire soluble fraction had been run through the chromatographic process. Pooled fractions then were concentrated at 4° C. by use of a Centriprep-30 concentrator (Amicon) to 3.8 mg/ml. Aliquots (0.5 ml) were either flash frozen and stored in liquid N2 or glycerol was added to a final concentration of 50% and samples (1.9 mg/ml) were stored at −20° C.
PHA synthase purified from insect cells appears to be relatively stable.

Series [3] concerns the molecule itself. Nature of the series: size exclusion chromatography of native protein (forms of about 100-160 kDa and 50-80 kDa).

3-hydroxybutyrate CoA [HBCoA]: the Km in series [1] turned out to be 2500 µM.

B1: A. eutrophus PHA synthase (phbC gene product) produced in insect cells with a baculovirus vector (enzyme, Alcaligenes eutrophus, UniProt P23608 7-589, looked up)
chain: AAASTQEGKSQPFKVTPGPFDPATWLEWSRQWQGTEGNGHAAASGIPGLDALAGVKIAPAQLGDIQQRYMKDFSALWQAMAEGKAEATGPLHDRRFAGDAWRTNLPYRFAAAFYLLNARALTELADAVEADAKTRQRIRFAISQWVDAMSPANFLATNPEAQRLLIESGGESLRAGVRNMMEDLTRGKISQTDESAFEVGRNVAVTEGAVVFENEYFQLLQYKPLTDKVHARPLLMVPPCINKYYILDLQPESSLVRHVVEQGHTVFLVSWRNPDASMAGSTWDDYIEHAAIRAIEVARDISGQDKINVLGFCVGGTIVSTALAVLAARGEHPAASVTLLTTLLDFADTGILDVFVDEGHVQLREATLGGGAGAPCALLRGLELANTFSFLRPNDLVWNYVVDNYLKGNTPVPFDLLFWNGDATNLPGPWYCWYLRHTYLQNELKVPGKLTVCGVPVDLASIDVPTYIYGSREDHIVPWTAAYASTALLANKLRFVLGASGHIAGVINPPAKNKRSHWTNDALPESPQQWLAGAIEHHGSWWPDWTAWLAGQAGAKRAAPANYGNARYRAIEPAPGRYVKAKA
notes: Denatured on SDS-PAGE for the Western blots; Size exclusion chromatography used the native purified protein; also called PHB synthase; 64 kDa protein
As to B1, the synthase activity remained entry is on record as “approximately 75%” in series [2] (after 7 weeks stored at −20° C. in the presence of 50% glycerol) and “approximately 50%” in series [2] (after 7 weeks stored in liquid N2). Also, the binding result in series [3] is “binds”.
